The values below come from paper PMC10038035 (Journal of Enzyme Inhibition and Medicinal Chemistry, 2023).

This data set deals with the molecule itself. Put plainly: PrP aggregate formation assay (PAFA, thioflavin T fluorescence).

B1: His-tagged mouse recombinant PrP (23-231) (domain or fragment)
chain: not shown
Regarding B1, the binding result is reported as “binds”.
